Measurements published in paper PMC10328401 (Science Advances, 2023).

Molecular target: T1, RsgI2-PD C-terminal fragment after autocleavage at Asn97-Pro98 (Clostridium thermocellum DSM 1313, UniProt A3DC27 98-259)
T1 sequence (looked up): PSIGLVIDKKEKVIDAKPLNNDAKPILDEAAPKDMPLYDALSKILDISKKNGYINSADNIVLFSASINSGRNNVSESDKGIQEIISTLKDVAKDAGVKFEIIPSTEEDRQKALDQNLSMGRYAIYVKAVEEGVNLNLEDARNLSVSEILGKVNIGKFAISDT
Experiment: crystal structure

B1: RsgI2-PD N-terminal fragment after autocleavage at Asn97-Pro98 (β1 strand chain, twelve residues) (peptide, UniProt A3DC27 86-97, looked up)
chain: SQEYAYIDVDIN
B1: binds.
